Measured values as given in US20100239587A1 (published 2010).
Values belong to the binder of their own block, whether it stands above or below them. Bridge positions count the residues as written; N and C are the ends. Ends that are not written are not given here.

What was measured:
[1] = target: TNF receptor (immobilized control); assay: SPR, receptor immobilized, peptide injected
[2] = target: T1, ErbB1 extracellular domain (recombinant, soluble) (UniProt P00533 25-645, limits assumed); assay: SPR; 10 µM peptide pre-injected over immobilized ErbB1; competitor: ErbB3 ectodomain (300 nM) with HRGβ1 (5 µM)
T1 construct: extracellular domain; also called erbB1 ectodomain; EGFr

[3] = target: T2, ErbB2 extracellular domain (recombinant) (UniProt P04626 23-652, limits assumed); assay: SPR; 10 µM peptide pre-injected over immobilized ErbB2; competitor: ErbB3 ectodomain (300 nM) with HRGβ1 (5 µM)
T2 construct: extracellular domain; also called erbB2 ectodomain; full-size erbB2 ectodomain

[4] = target: T3, ErbB3 extracellular domain (recombinant, soluble) (UniProt P21860 20-643, limits assumed); assay: SPR; 10 µM peptide pre-injected over immobilized ErbB3; competitor: ErbB3 ectodomain (300 nM) with HRGβ1 (5 µM)
T3 construct: extracellular domain; Used both immobilized and as the injected analyte (300 nM, alone or with 5 µM HRGβ1); also called erbB3 ectodomain
T3 sequence (P21860 20-643 limits assumed): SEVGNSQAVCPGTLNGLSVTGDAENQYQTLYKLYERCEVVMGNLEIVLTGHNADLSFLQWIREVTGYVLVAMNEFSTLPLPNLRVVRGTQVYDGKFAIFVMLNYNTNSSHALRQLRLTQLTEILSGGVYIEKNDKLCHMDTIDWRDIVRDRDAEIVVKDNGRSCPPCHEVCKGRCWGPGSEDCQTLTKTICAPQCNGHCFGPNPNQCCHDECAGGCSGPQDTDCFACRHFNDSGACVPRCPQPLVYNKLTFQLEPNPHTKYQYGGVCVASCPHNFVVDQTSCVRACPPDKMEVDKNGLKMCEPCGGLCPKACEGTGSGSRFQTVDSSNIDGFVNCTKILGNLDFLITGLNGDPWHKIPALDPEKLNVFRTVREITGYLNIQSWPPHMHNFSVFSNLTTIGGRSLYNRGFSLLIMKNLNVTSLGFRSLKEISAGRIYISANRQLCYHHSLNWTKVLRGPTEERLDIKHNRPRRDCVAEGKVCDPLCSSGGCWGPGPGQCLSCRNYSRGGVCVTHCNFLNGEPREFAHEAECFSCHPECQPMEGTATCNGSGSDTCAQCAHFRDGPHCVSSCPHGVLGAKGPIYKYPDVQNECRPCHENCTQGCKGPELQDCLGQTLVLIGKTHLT

Kd [1]: > 1 mM
B1: B2-S22-AFA (peptide)
peptide: YCFPDEEGACY
modifications: disulfide 2-10 (inferred)
notes: Cyclic peptide that mimics part of the S22 loop of erbB2

Kd [1]: > 1 mM
B2: B1-S22-ALG (peptide)
peptide: YCLVWKYADAGCY
modifications: disulfide 2-12 (inferred)
notes: Derived from the S22 repeat of erbB1

Kd [1]: > 1 mM
B3: B3-S22-APQ (peptide)
peptide: YCPIYKYPDVQCY
modifications: disulfide 2-12 (inferred)
notes: Derived from the S22 repeat of erbB3

Percent Inhibition [2]: 2.4%
Kd [1]: > 1 mM
Percent Inhibition [3]: -1.2%
Percent Inhibition [4]: 3.1%
B4: CD4-G (peptide)
peptide: FCYIGEVEDQCY
modifications: disulfide 2-11 (inferred)
notes: Negative control peptide; also called CD4 receptor-derived cyclic peptide; control peptide

Kd [1]: > 1 mM
B5: B4-S22-AFD (peptide)
peptide: YCFIFKYADPDCY
modifications: disulfide 2-12 (inferred)
notes: Derived from the S22 repeat of erbB4

Kd [1]: > 1 mM
B6: B2-S22-APE (peptide)
peptide: YCPIWKFPDEECY
modifications: disulfide 2-12 (inferred)
notes: Derived from the S22 repeat of erbB2
